According to publication PMC7921785:

Target: T1, rPcDp1 (recombinant Dp1) (Pseudosciaena crocea (large yellow …, UniProt D2CFQ6 1-412))
T1 sequence: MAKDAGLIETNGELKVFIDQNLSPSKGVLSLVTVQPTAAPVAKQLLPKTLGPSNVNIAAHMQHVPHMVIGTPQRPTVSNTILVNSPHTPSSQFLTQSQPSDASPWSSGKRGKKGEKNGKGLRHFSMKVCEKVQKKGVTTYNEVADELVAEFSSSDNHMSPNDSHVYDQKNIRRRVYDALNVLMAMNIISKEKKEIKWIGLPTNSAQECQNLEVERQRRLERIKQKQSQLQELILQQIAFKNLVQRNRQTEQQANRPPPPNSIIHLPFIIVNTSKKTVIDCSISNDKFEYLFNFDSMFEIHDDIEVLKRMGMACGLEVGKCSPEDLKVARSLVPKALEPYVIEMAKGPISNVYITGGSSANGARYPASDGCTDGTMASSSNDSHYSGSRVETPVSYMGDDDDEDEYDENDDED
Experiment: EMSA

B1: wE2F (WE2Fsite) (dsDNA)
DNA 1: GAGATGACGTAGTTTTCGCGCGAAACTAG
DNA 2: CTAGTTTCGCGCGAAAACTACGTCATCTC
- binding result: binds
